Laboratory results: the supplement of paper PMC7125110
± gives the standard error. For some assays here: Fewer inactive variants are shown than the library holds.

B1: glmS ribozyme (parent)
chain: AUAAAAGCGCCAGAACUACAGAAAUGUAGUUGACGAGGAGGAGGUUUAUCGAAUUUUCGGCGGAUGCCUCCAAA

Columns and labels:
Settings in all cases: with glucosamine-6-phosphate
glucosamine-6-phosphate [1] = variants of: B1; assay: kcat; higher = faster cleavage; RNA array
Method in brief: (§1)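 Ribozyme variants carrying barcodes were transcribed in situ on sequenced MiSeq chips by E. coli RNA polymerase and tracked at 37 °C with a hybridised Cy3 probe. They were exposed to 40 μM to 10 mM glucosamine-6-phosphate in HEPES/KCl/Mg(OAc)2 buffer. kobs came from exponential decay fits of normalised per-tile medians, and kcat and KM from weighted Michaelis–Menten fits.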

glucosamine-6-phosphate [2] = variants of: B1; assay: KM; higher = weaker cofactor use; RNA array
Method in brief: as §1

glucosamine-6-phosphate [3] = variants of: B1; assay: self-cleavage kobs at 160 uM GlcN6P; higher = faster cleavage; RNA array
Method in brief: as §1

glucosamine-6-phosphate [4] = variants of: B1; assay: self-cleavage kobs at 640 uM GlcN6P; higher = faster cleavage; RNA array
Method in brief: as §1

glucosamine-6-phosphate [5] = variants of: B1; assay: self-cleavage kobs at 2500 uM GlcN6P; higher = faster cleavage; RNA array
Method in brief: as §1

glucosamine-6-phosphate [6] = variants of: B1; assay: self-cleavage kobs at 10000 uM GlcN6P; higher = faster cleavage; RNA array
Method in brief: as §1

glucosamine-6-phosphate [7] = variants of: B1; assay: self-cleavage kobs at 40 uM GlcN6P; higher = faster cleavage; RNA array
Method in brief: as §1

## A6G U55A
glucosamine-6-phosphate [1]
  kcat: 0.00056 ± 6.3e-05 s⁻¹
glucosamine-6-phosphate [2]
  KM: 1630 ± 370 µM
glucosamine-6-phosphate [3]
  self-cleavage kobs at 160 uM GlcN6P: 5.94e-05 ± 1.2e-05 s⁻¹
glucosamine-6-phosphate [4]
  self-cleavage kobs at 640 uM GlcN6P: 0.000143 ± 1.7e-05 s⁻¹
glucosamine-6-phosphate [5]
  self-cleavage kobs at 2500 uM GlcN6P: 0.000388 ± 4.1e-05 s⁻¹
glucosamine-6-phosphate [6]
  self-cleavage kobs at 10000 uM GlcN6P: 0.000463 ± 4.3e-05 s⁻¹

## C11G C68G
glucosamine-6-phosphate [1]
  kcat: 2.12e-05 ± 7.1e-06 s⁻¹

## G7U G37C
glucosamine-6-phosphate [1]
  kcat: < 1e-05 s⁻¹
glucosamine-6-phosphate [7]
  self-cleavage kobs at 40 uM GlcN6P: < 1e-05 s⁻¹
glucosamine-6-phosphate [4]
  self-cleavage kobs at 640 uM GlcN6P: < 1e-05 s⁻¹

## C10G C11A
glucosamine-6-phosphate [1]
  kcat: < 1e-05 s⁻¹
glucosamine-6-phosphate [7]
  self-cleavage kobs at 40 uM GlcN6P: < 1e-05 s⁻¹
glucosamine-6-phosphate [4]
  self-cleavage kobs at 640 uM GlcN6P: < 1e-05 s⁻¹

## C10U C16U
glucosamine-6-phosphate [1]
  kcat: 1.06e-05 ± 1.7e-06 s⁻¹

## C11A U55G
glucosamine-6-phosphate [1]
  kcat: 0.000167 ± 5.3e-05 s⁻¹
glucosamine-6-phosphate [4]
  self-cleavage kobs at 640 uM GlcN6P: 3.28e-05 ± 1.1e-05 s⁻¹
glucosamine-6-phosphate [5]
  self-cleavage kobs at 2500 uM GlcN6P: 0.000159 ± 2.4e-05 s⁻¹
glucosamine-6-phosphate [6]
  self-cleavage kobs at 10000 uM GlcN6P: 0.000125 ± 2.1e-05 s⁻¹

## C11A U55A
glucosamine-6-phosphate [1]
  kcat: 0.000149 ± 2.2e-05 s⁻¹
glucosamine-6-phosphate [4]
  self-cleavage kobs at 640 uM GlcN6P: 0.000125 ± 4e-05 s⁻¹
glucosamine-6-phosphate [5]
  self-cleavage kobs at 2500 uM GlcN6P: 0.000203 ± 4.1e-05 s⁻¹
glucosamine-6-phosphate [6]
  self-cleavage kobs at 10000 uM GlcN6P: 0.000135 ± 1.4e-05 s⁻¹

## C10A U57A
glucosamine-6-phosphate [1]
  kcat: < 1e-05 s⁻¹
glucosamine-6-phosphate [4]
  self-cleavage kobs at 640 uM GlcN6P: < 1e-05 s⁻¹

## C10G A52G U56A C70A
glucosamine-6-phosphate [1]
  kcat: 1.68e-05 ± 4.2e-06 s⁻¹

## C10A U56A
glucosamine-6-phosphate [1]
  kcat: < 1e-05 s⁻¹
glucosamine-6-phosphate [6]
  self-cleavage kobs at 10000 uM GlcN6P: < 1e-05 s⁻¹

## G9A G13C U30G G63U U69G
glucosamine-6-phosphate [1]
  kcat: < 1e-05 s⁻¹
glucosamine-6-phosphate [7]
  self-cleavage kobs at 40 uM GlcN6P: < 1e-05 s⁻¹
glucosamine-6-phosphate [5]
  self-cleavage kobs at 2500 uM GlcN6P: < 1e-05 s⁻¹

## G7U C70G
glucosamine-6-phosphate [1]
  kcat: 0.000479 ± 0.00015 s⁻¹
glucosamine-6-phosphate [7]
  self-cleavage kobs at 40 uM GlcN6P: 0.000382 ± 0.00012 s⁻¹
glucosamine-6-phosphate [3]
  self-cleavage kobs at 160 uM GlcN6P: 0.000844 ± 0.0002 s⁻¹
glucosamine-6-phosphate [4]
  self-cleavage kobs at 640 uM GlcN6P: 0.0004 ± 0.00014 s⁻¹

## C10A C67G
glucosamine-6-phosphate [1]
  kcat: 8.97e-05 ± 1.7e-05 s⁻¹
glucosamine-6-phosphate [7]
  self-cleavage kobs at 40 uM GlcN6P: 2.69e-05 ± 1.1e-05 s⁻¹
glucosamine-6-phosphate [4]
  self-cleavage kobs at 640 uM GlcN6P: 8.76e-05 ± 1.4e-05 s⁻¹
glucosamine-6-phosphate [5]
  self-cleavage kobs at 2500 uM GlcN6P: 7.6e-05 ± 1.7e-05 s⁻¹

## A6U A15U G63U G66A
glucosamine-6-phosphate [1]
  kcat: 1.95e-05 ± 6.5e-06 s⁻¹

## C10A U65A
glucosamine-6-phosphate [1]
  kcat: 1.06e-05 ± 3e-06 s⁻¹

## C10U C70A
glucosamine-6-phosphate [1]
  kcat: 2.4e-05 ± 6e-06 s⁻¹
glucosamine-6-phosphate [5]
  self-cleavage kobs at 2500 uM GlcN6P: 3.1e-05 ± 1.5e-05 s⁻¹

## A6G A33G
glucosamine-6-phosphate [1]
  kcat: < 1e-05 s⁻¹
glucosamine-6-phosphate [6]
  self-cleavage kobs at 10000 uM GlcN6P: < 1e-05 s⁻¹

## C10U U69A
glucosamine-6-phosphate [1]
  kcat: 1.11e-05 ± 3.7e-06 s⁻¹

## C10U U69C
glucosamine-6-phosphate [1]
  kcat: 2.21e-05 ± 5.7e-06 s⁻¹

## C8A G35U
glucosamine-6-phosphate [1]
  kcat: < 1e-05 s⁻¹
glucosamine-6-phosphate [5]
  self-cleavage kobs at 2500 uM GlcN6P: < 1e-05 s⁻¹
glucosamine-6-phosphate [6]
  self-cleavage kobs at 10000 uM GlcN6P: < 1e-05 s⁻¹

## C10A U46G C50U C68U
glucosamine-6-phosphate [1]
  kcat: 3.67e-05 ± 1.3e-05 s⁻¹

## C11A G32U
glucosamine-6-phosphate [1]
  kcat: 5.22e-05 ± 2.5e-05 s⁻¹
glucosamine-6-phosphate [7]
  self-cleavage kobs at 40 uM GlcN6P: < 1e-05 s⁻¹
glucosamine-6-phosphate [3]
  self-cleavage kobs at 160 uM GlcN6P: < 1e-05 s⁻¹

## A6G U54C
glucosamine-6-phosphate [1]
  kcat: 0.000547 ± 9.2e-05 s⁻¹
glucosamine-6-phosphate [2]
  KM: 2590 ± 710 µM
glucosamine-6-phosphate [3]
  self-cleavage kobs at 160 uM GlcN6P: 4.65e-05 ± 1.2e-05 s⁻¹
glucosamine-6-phosphate [4]
  self-cleavage kobs at 640 uM GlcN6P: 0.0001 ± 1.3e-05 s⁻¹
glucosamine-6-phosphate [5]
  self-cleavage kobs at 2500 uM GlcN6P: 0.000351 ± 7.7e-05 s⁻¹
glucosamine-6-phosphate [6]
  self-cleavage kobs at 10000 uM GlcN6P: 0.000427 ± 5.3e-05 s⁻¹

## C11A C61G
glucosamine-6-phosphate [1]
  kcat: 1.14e-05 ± 3.7e-06 s⁻¹
glucosamine-6-phosphate [7]
  self-cleavage kobs at 40 uM GlcN6P: < 1e-05 s⁻¹

## C11G C70U
glucosamine-6-phosphate [1]
  kcat: 1.5e-05 ± 6.7e-07 s⁻¹
glucosamine-6-phosphate [2]
  KM: 138 ± 61 µM

## G7C A36G G37U A52U U57C G63U
glucosamine-6-phosphate [1]
  kcat: < 1e-05 s⁻¹
glucosamine-6-phosphate [5]
  self-cleavage kobs at 2500 uM GlcN6P: < 1e-05 s⁻¹

## C8U C10A A15U G38A C50U
glucosamine-6-phosphate [1]
  kcat: < 1e-05 s⁻¹

## C11U A12C
glucosamine-6-phosphate [1]
  kcat: 9.58e-05 ± 3.4e-06 s⁻¹
glucosamine-6-phosphate [2]
  KM: 1050 ± 120 µM
glucosamine-6-phosphate [4]
  self-cleavage kobs at 640 uM GlcN6P: 3.76e-05 ± 7e-06 s⁻¹
glucosamine-6-phosphate [5]
  self-cleavage kobs at 2500 uM GlcN6P: 6.24e-05 ± 1.2e-05 s⁻¹
glucosamine-6-phosphate [6]
  self-cleavage kobs at 10000 uM GlcN6P: 8.81e-05 ± 9e-06 s⁻¹
